Results published in paper PMC13544220, “Glycemic and bodyweight effects of GIPR coding variation reflect differences in surface expression and intrinsic functional impairment” (Science Advances, 2026).

Columns and labels:
Assay type in all cases: cell-based, human
[1] = system: wild-type and variant SNAP-GIPR; experiment: Single-concentration GIP cAMP response by HTRF in AD293 cells; settings: Fig S3F, HTRF, mean;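 note: ratio to experiment-wide average response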
Method: All variants were tested in parallel on each occasion to control for transfection efficiency differences between experiments.

[2] = system: wild-type and variant SNAP-GIPR; experiment: cADDis cAMP imaging in AD293 cells, ensemble, expression-matched and per decile; settings: Fig S3F, cADDis, mean;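 note: Ensemble cells as % of IBMX/FSK response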
How it was run: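 Surface GIPR and cAMP are measured in individual AD293 cells coexpressing SNAP-tagged receptor and the green cADDis biosensor, imaged live at 37°C. Responses are reported ensemble, expression-matched against wild-type deciles with extremes trimmed, or within each variant's own surface deciles.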

[3] = system: wild-type and variant SNAP-GIPR; experiment: Constitutive and agonist-mediated internalization, reversible SNAP-tag labelling, AD293 cells; parameters: key to Internalisation, Vehicle / Internalisation, +GIP / Internalisation, GIP-only: % internalization: residual fluorescence after Mesna vs pre-Mesna; Surface expression: unit not given here; settings: Mean
How it was run: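 Percentage internalization calculated as specific SNAP fluorescence remaining after 10 min Mesna exposure, relative to pre-Mesna signal, imaged in TNE buffer (pH 8.6).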

[4] = system: wild-type and variant SNAP-GIPR in Gipr-/- mouse islets; experiment: Surface SNAP-GIPR expression in pancreatic islets; settings: Fig 6B
Method: Islets were purified from Gipr^−/− mice as described in the “Islet isolation and culture” section. Islets were transduced with adenoviral wild-type or variant SNAP-tagged GIPR constructs (VectorBuilder) per the manufacturer’s instructions. All variants were tested in parallel on each occasion to control for transduction efficiency. Twenty-four hours posttransduction, whole, intact islets were labeled with SNAP-Surface Alexa Fluor 647 for 15 min at 37°C. Following labeling, the islets were placed in a drop of PBS in the center of a glass-bottom MatTek dish and imaged on a Zeiss LSM 780 inverted confocal microscope fitted with a 63X/1.4 NA oil immersion objective. Receptor surface levels were quantified in Fiji using a macro using full width at half maximum (FWHM) designed by the Facility for Imaging and Light Microscopy (FILM) at Imperial College London and expressed relative to wild-type GIPR. In additional experiments, islets transduced as above and labeled with SNAP-Surface-647 were fixed in 4% paraformaldehyde, permeabilized in 0.5% (v/v) Triton X-100 in PBS (15 min), washed once with PBS and incubated in blocking buffer (PBS and 1% BSA) for 1 hour, and incubated overnight at 4°C in primary antibodies against insulin (1:50; Dako IR002, Agilent Technologies) and glucagon (1:500; G2654, Sigma-Aldrich) in blocking buffer.

B1: WT (protein, UniProt P48546 22-466, looked up)
Gastric inhibitory …: RAETGSKGQTAGELYQRWERYRRECQETLAAAEPPSGLACNGSFDMYVCWDYAAPNATARASCPWYLPWHHHVAAGFVLRQCGSDGQWGLWRDHTQCENPEKNEAFLDQRLILERLQVMYTVGYSLSLATLLLALLILSLFRRLHCTRNYIHINLFTSFMLRAAAILSRDRLLPRPGPYLGDQALALWNQALAACRTAQIVTQYCVGANYTWLLVEGVYLHSLLVLVGGSEEGHFRYYLLLGWGAPALFVIPWVIVRYLYENTQCWERNEVKAIWWIIRTPILMTILINFLIFIRILGILLSKLRTRQMRCRDYRLRLARSTLTLVPLLGVHEVVFAPVTEEQARGALRFAKLGFEIFLSSFQGFLVSVLYCFINKEVQSEIRRGWHHCRLRRSLGEEQRQLPERAFRALPSGSGPGEVPTSRGLSSGTLPGPGNEASRELESYC
B1 was tested, and the “AD293 100 pM HTRF” value ([1]; AD293, 100 pM) was 1.584, the “AD293 100 nM HTRF” value ([1]; AD293, 100 nM) was 1.495 and the “AD293 100 pM cADDis” value ([2]; AD293, 100 pM) was 34.2953. For the same molecule, the “AD293 100 nM cADDis” value ([2]; AD293, 100 nM) was 38.14, the “+GIP internalisation (100 nM)” value ([3]; Fig 4E, GIP 100 nM) was 0.9729 and the “GIP-specific internalisation (100 nM)” value ([3]; Fig 4E, GIP 100 nM) was 0.2717. For the same molecule, the “Constitutive internalisation (100 nM)” value ([3]; Fig 4E) was 0.7012, the Surface expression ([3]; Fig 4E) was 1.75 and the “Internalisation, +GIP” value ([3]; Fig S4C, AD293) was 55.4256. For the same molecule, the “Internalisation, GIP-only” value ([3]; Fig S4C, AD293) was 15.538, the “Internalisation, Vehicle” value ([3]; Fig S4C, AD293) was 39.8877 and the “Surface SNAP-GIPR expression in pancreatic islets” value (“Surface SNAP-GIPR expression” below) ([4]; replicate 1) was 1.958. For the same molecule, the “Surface SNAP-GIPR expression” value ([4]; replicate 2) was 2.33, the “Surface SNAP-GIPR expression” value ([4]; replicate 3) was 2.173 and the “Surface SNAP-GIPR expression” value ([4]; replicate 4) was 3.278. The “Surface SNAP-GIPR expression” value ([4]; replicate 5) was 3.132.
